Assay results: doi:10.1101/2023.06.06.543969 (bioRxiv, 2023)

Tests used:
Test in all cases: BLI
Settings in all cases: both partners purified
[1] = molecular target: T1, His6-tagged SARS-CoV-2 receptor-binding domain (SARS-CoV-2, UniProt P0DTC2)
T1 construct: source: High Five cells, purified (Ni-NTA, size exclusion)

[2] = molecular target: influenza hemagglutinin (HA) from H1N1 A/California/07/2009 (Influenza A virus H1N1 …, UniProt C3W5X2, biotinylated)
[3] = molecular target: T2, biotinylated αTSR domain of P. falciparum circumsporozoite protein (Plasmodium falciparum 3D7 (by PDB 7RXI))
T2 construct: also called P. falciparum CSP; C-terminal αTSR domain of P. falciparum circumsporozoite protein
T2 chain: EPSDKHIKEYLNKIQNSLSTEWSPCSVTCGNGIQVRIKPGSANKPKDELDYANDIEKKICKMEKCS

B1: GAR12 Fab VL D50K (Fab, V domains shown)
VH: EVQLVQSGGGLVQPGGSLRLSCAASGFTFSSYAMSWVRQAPGKGLEWVLSISGSGGSTYYADSVKGRFTISIDNSKKTVYLQMNSLRAEDTAVYYCAKSGEQQLVQAEYFHHWGQGTLVTVSS
VL: DIQMTQSPSTLSASVGDRVTITCRASQSIGRWLAWYQQKPGKAPKLLIYKASSLESGVPSRFSGSGFGTEFTLTISSLQPDDFATYYCQQCDSLLTFGGGTKLEIK
notes: also called GAR12 VL D50K; source: ExpiCHO, transiently co-transfected, purified (CaptureSelect CH1-XL)
For B1, the “fold change in KD against the wild type” value [1] was 44 fold.

B2: 5J8 Fab (WT) (Fab, V domains shown)
VH: EVQLVESGPGLVKPSDILSLTCAVSGYSISSNYYWGWIRQPPGKGLEWIGSIYHSGSTYYKPSLESRLGISVDTSKNQFSLKLSFVSAADTAVYYCARHVRSGYPDTAYYFDKWGQGTLVTVSS
VL: SYVLTQPPSVSVAPGETARISCGGNNIGTKVLHWYQQTPGQAPVLVVYDDSDRPSGIPERFSGSNSGNTATLTISRVEVGDEADYYCQVWDISTDQAVFGGGTKLTVL
notes: also called IGLV3–21 antibody 5J8; source: ExpiCHO, transiently co-transfected, purified (CaptureSelect CH1-XL)
B2: binds [2].

B3: Fab234 (WT) (Fab, V domains shown)
VH: EVQLVESGGGLVKPGGSLRLSCAASGFNFSTHIMNWVRQAPGKGLEWVSSISSSGTYIYYADSMKGRFTISRDNPKNSLYLQMNSLRAEDTAVYYCARARGFIQFHYYMDVWGKGTTVAVSS
VL: SYVLTQPPSVSVAPGKTARITCGGNNIGSKSVHWHQQRPGQAPVLVVYDDKIRPSGIPERFSGSNSGNTATLIISRVEAGDEADYYCQVWHSSSDPVVFGGGTKLTVL
B3: binds [3].
